Source: IntAct's records for PubMed 16004875

B1: Vesicle-associated membrane protein-associated protein A (Rattus norvegicus (Rat)), Q9Z270 (parent)
chain: MASASGAMAKHEQILVLDPPSDLKFKGPFTDVVTTNLKLQNPSDRKVCFKVKTTAPRRYCVRPNSGVIDPGSIVTVSVMLQPFDYDPNEKSKHKFMVQTIFAPPNISDMEAVWKEAKPDELMDSKLRCVFEMPNENDKLNDMEPSKAVPLNASKQDGPLPKPHSVSLNDTETRKLMEECKRLQGEMMKLSEENRHLRDEGLRLRKVAHSDKPGSTSAVSFRDNVTSPLPSLLVVIAAIFIGFFLGKFIL
partner: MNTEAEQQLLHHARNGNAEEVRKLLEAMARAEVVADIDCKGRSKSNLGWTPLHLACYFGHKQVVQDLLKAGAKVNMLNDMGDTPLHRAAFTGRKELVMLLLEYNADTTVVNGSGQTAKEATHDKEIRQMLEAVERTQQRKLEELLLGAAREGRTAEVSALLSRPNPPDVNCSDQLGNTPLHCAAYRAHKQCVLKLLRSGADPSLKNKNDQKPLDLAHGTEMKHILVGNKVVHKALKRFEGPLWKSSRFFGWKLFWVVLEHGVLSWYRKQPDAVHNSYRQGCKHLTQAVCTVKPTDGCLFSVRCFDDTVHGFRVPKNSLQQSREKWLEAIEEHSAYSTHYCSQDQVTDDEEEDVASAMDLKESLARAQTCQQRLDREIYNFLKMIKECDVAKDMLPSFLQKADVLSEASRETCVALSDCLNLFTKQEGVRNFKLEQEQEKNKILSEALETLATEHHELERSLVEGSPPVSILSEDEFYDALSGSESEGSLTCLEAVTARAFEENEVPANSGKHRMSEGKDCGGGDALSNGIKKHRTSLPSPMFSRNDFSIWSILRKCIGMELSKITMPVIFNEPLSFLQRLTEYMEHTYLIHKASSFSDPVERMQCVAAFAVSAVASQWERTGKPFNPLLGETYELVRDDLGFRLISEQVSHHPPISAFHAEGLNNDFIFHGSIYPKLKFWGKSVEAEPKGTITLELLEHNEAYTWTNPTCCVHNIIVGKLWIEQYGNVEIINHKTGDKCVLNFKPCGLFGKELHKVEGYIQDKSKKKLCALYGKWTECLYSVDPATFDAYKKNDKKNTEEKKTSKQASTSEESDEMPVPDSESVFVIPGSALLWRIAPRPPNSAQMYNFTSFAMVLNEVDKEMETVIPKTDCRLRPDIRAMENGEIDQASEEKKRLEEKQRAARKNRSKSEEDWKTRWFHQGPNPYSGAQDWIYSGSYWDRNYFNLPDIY
B2: Vesicle-associated membrane protein-associated protein SCS2 (Saccharomyces cerevisiae), P40075 (parent)
chain: MSAVEISPDVLVYKSPLTEQSTEYASISNNSDQTIAFKVKTTAPKFYCVRPNAAVVAPGETIQVQVIFLGLTEEPAADFKCRDKFLVITLPSPYDLNGKAVADVWSDLEAEFKQQAISKKIKVKYLISPDVHPAQNQNIQENKETVEPVVQDSEPKEVPAVVNEKEVPAEPETQPPVQVKKEEVPPVVQKTVPHENEKQTSNSTPAPQNQIKEAATVPAENESSSMGIFILVALLILVLGWFYR
partner: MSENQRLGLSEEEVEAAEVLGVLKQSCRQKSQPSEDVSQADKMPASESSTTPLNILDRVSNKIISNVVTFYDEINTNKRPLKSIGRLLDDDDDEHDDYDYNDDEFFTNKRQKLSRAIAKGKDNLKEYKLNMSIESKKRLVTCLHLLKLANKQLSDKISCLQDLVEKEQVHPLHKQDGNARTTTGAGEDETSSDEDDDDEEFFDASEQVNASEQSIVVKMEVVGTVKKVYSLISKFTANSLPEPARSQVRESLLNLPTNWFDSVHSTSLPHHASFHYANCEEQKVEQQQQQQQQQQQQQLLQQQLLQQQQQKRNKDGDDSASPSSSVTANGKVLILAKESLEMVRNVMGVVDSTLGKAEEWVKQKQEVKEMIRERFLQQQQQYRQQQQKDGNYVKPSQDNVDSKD

Variants of: B1
Details: with osbl1_rat Osbpl1a

effect of a mutation on the interaction | Variant
disrupting interaction | K94D;M96D

Variants of: B2
Details: with opi1_yeast OPI1, P21957

effect of a mutation on the interaction | Variant
disrupting interaction | K84D;L86D
